Experimental data taken from publication PMC9606039 (2022).

Molecular target: receptor-binding domain (RBD) (residues 319-541) of the SARS-CoV-2 spike (S) protein (SARS-CoV-2, UniProt P0DTC2 319-541)
Test: BLI

Binder | Kd [nM]
LY-CoV1404 Fab (Fab, V domains shown) VH: QITLKESGPTLVKPTQTLTLTCTFSGFSLSISGVGVGWLRQPPGKALEWLALIYWDDDKRYSPSLKSRLTISKDTSKNQVVLKMTNIDPVDTATYYCAHHSISTIFDHWGQGTLVTVSS VL: QSALTQPASVSGSPGQSITISCTATSSDVGDYNYVSWYQQHPGKAPKLMIFEVSDRPSGISNRFSGSKSGNTASLTISGLQAEDEADYYCSSYTTSSAVFGGGTKLTVL | 1.6
2-7 Fab (Fab, V domains shown) VH: QITLKESGPTLVKPTQTLTLTCTFSGFSLSTSGVGVGWIRQPPGKALEWLALIYWDDDKRYSPSLKSRLTITKDTSKNQVVLTMTNMDPVDTATYYCAHHKIERIFDYWGQGTLVTVSS VL: QSALAQPASVSGSPGQSITISCTGTSSDVGAYNYVSWYQQHPGKAPKLMIYDVSKRPSGVSNRFSGSKSGNTASLTISGLQAEDEADYYCSSYTTSSTVFGGGTKLTVL | 38
2-7 D54N Fab (Fab, V domains shown) VH: QITLKESGPTLVKPTQTLTLTCTFSGFSLSTSGVGVGWIRQPPGKALEWLALIYWNDDKRYSPSLKSRLTITKDTSKNQVVLTMTNMDPVDTATYYCAHHKIERIFDYWGQGTLVTVSS VL: QSALAQPASVSGSPGQSITISCTGTSSDVGAYNYVSWYQQHPGKAPKLMIYDVSKRPSGVSNRFSGSKSGNTASLTISGLQAEDEADYYCSSYTTSSTVFGGGTKLTVL | > 5000
